# The nanobody polyreactivity screen of Harvey et al. (2022)
# Assay: yeast display, Sf9 membrane polyspecificity reagent, FACS + sequencing; frameworks hold sequencing errors
# Summary of the method: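 Genes from sorted yeast were amplified by colony PCR, read by MiSeq 2 × 250 sequencing and filtered on CDR length. These cells carried a synthetic nanobody library in Saccharomyces cerevisiae BJ5465 and were sorted by FACS into low and high (top ~1%) gates on anti-HA and streptavidin fluorescence. Polyreactivity is labelled according to the gate of origin.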
row,Sequence,polyreactivity (PSR sort gate)
1,QDQLVESGGGLVQAGGSLRLSCAASGIIFKFNVMGWYRQAPGKERELVAAISTGGSTYYADSVKGRFTISRDNAKNTVYLQMNSLKPEDTAVYYCNAVSPLSIWSSRDGWYGYWGQGTQVTVSS,high polyreactivity
2,QVQLVESGGGLVQAGGSLRLSSAASGITFTRNAMGWYRQAPGKERELVATIDSGDSTYYADSVKGRFTISRDNAKNTVYLQMNSQKPEDTAVYYCAAEWYGYEPSYWYYWPYEYWGQGTQVTVSS,high polyreactivity
3,QVQLVESGGGLGQAGGSLRLSCAASGSIIPWNVMGWSRQARGKEREFVAGITFRVGSTYYADSVKGRFTISRDNAKNTVYLQMNSLKPEDTAVYYCAALIRAVDRYTYRYGYWGQGTQVTVSS,high polyreactivity
4,QVQLVESGGGLVQAGGSLRLSCAASGFIFDYYAMGWYRQAPGKERELVAAISGSGTSTYYADSVKGRFTISRDNAKYTVYLQMNSLKPEDTAVYYCSAESDWWSDIGYYWGQGTQVTVSS,high polyreactivity
5,QVQLVESGVGLVQAGGSLRLSCAASGSIFYENAMGWYRQEPGKEREFVATIDLIGDRTFYADSVKVRFTISRDNAKNTVYLQMNSLKPEDTAVYYCAAERVGVFFRYDYWGQGTQVTVSS,low polyreactivity
6,QVQLVESGGGLVQAGGSLRLSCAASGSTFRNNAMGWYRQAPGKERELVAAISWIGGDTYYADSVKGRFTISRDNAKNTVYLQMNSLKPEDTAVYYCNRDFVYWPWFKFDYWGQGTQVTVSS,low polyreactivity
7,QVQLVESGGGLVQAGGSLRLSCAASGRIFVDNAMGWYRQAPGKERELVATITSTGSTNYADSVKGRFTISRDNAKYTVYLQMNSLKPEDTAVYYCNADGKLQDYDYWGQGTQVTVSS,high polyreactivity
8,QVQLVDSGGGLVQAGGSLRLSCAASGFTFRPYAMGWYRQAPGKERELVATITGRGGSTYYADSVKGRFTISRDTAKNTVYLQMNSLKPEDTAVYYCASRARYSPAPYDYWGQGTQVTVSS,high polyreactivity
9,QVQLVESGGGLVQAGGSLRLSCAASGSIFRKYAMGWYRQAPGKDRELVAAISKRGGSTYYADSVKGRFTISRDNAKNTVYLQMNSLKPEDTAVYYSNALRRYVSVRPTKSDYWGQGTQVTVSS,high polyreactivity
10,QVQLVESGRGLVQAGGSLRLSCAASGSTFRGNAMGWYRQATGKERELVAAITRSGGRTYYADSVKGRFTISRDNAKNTVYLQMNSLKPEDTAVYYCAVEYKYPGYDYWGPGTQVTVSS,high polyreactivity
11,QVQLVESGGGLVQAGGSLRLSCAASGRTSGFNTMGWYRQAPGKERELVAAISFSGGSTYYADSVKGRFTISRDNAKNTVYFQMNSLKPEDTAVSYCNALFRYLYRSGDYWRQGTQVTVSS,low polyreactivity
12,QVQLGESGGGIVQAGGSLRLSCAASAFIIKYYAMGWYRPAPGKETELVAAIDGSSASTYYADSVKGRFTISRDNAKNTVYLQMNSLKPEDTAVYYCAVARLRRGGVQYGYWGQGTQVTVSS,high polyreactivity
13,QVQLVESGGGLVQAGGSLRLSCAASGRTFAWYAMAWYRQAPGKERELVATITSRGGSTYYADSVKGRFTISRDNAKNTVYLQMNSLKPEYTAVYYCAAQSFWRPHQYDYWGQGTQVTVSS,low polyreactivity
14,QVQLVESGGGLVQAGGSLRLSCAASGRTFAAYAMGWYRQAPGKEREFVADITYSGGSTTYADSVKGRFTISRDNAKNTVYLQMNSLKPEDTAVYYCNKLAYTRGWRGFVWYDYWGQGTQVTVSS,low polyreactivity
15,QVQLVESGGGVVQAGGSLRLICAASGSTFYINTMGWYRPAPGKERELVAAISWTGGRTYYADSVKGRFTISRDNAKNTVYLQLNSLKPEDTAVYYCAAYYNIPDRRRVGYDYWGQGTQVTVSS,high polyreactivity
16,QVQLVESGGGLVQAGGSLRLSCAASGRIFRGYAMGWYRQAPGKERELVATITARGGNTYYADSVKGRFTISRDNAKNTVYLQMNSLKPEETAVYYCAATFYRRYVDLGYWGQGTQVTVSS,high polyreactivity
17,QVQLVESGGGLVQAGGSLRLSCAASGSTFYIYAMGWYRQAPGKERELVAAITWSGGSTYYADSVKGRFTISRDNAKNTVYLQMNSLKPEDTAVYYCAAQVWYSKSPTVDVYFDYDYWGQGTQVTVSS,low polyreactivity
18,QVQLVESGGGLVQAGGSLRLSCAASGRIFYGYTMGWYRQAPGKERELVAAITWSGGSTHYADSVKGRFTISRDNAKNTVYLQMNSLKPEVTAVYYCNARRRSVYRGLYDYWGQGTQVTVSS,high polyreactivity
19,QVQLVESGGGLVQAGGSLRLSCAASGSIFWWNTMGWYRQAPGKERELVAAITFSGGSTYYADSVKGRFTISRDNAKNTVYLQMNSLKPEDTAVYYCNADGWVSVRGTWSDGGYWGQGTQVTVSS,low polyreactivity
20,QVQLVESGGGIVQAGGSLRLSCADSGITFKYYAMGWYRQAPGKERQWVAAISRSGGSTYYADSVKGRFTISRDNAKNTVYLQMNSLIAEDTAVYYCNAELYSVYLGFGYWGQGTQVTVSS,high polyreactivity
21,QDQLVESGGGLVQARGSLRLRCAASGFIFIFNAMGWYRPAPGKERELVAAIDTSDDSTYYADSVKGRFTISRDNGKNTVYLQLNSLKPEDTAVYYCAAEELSNYEYWGQGTQVTVSS,low polyreactivity
22,QVQLVESGGGLVQAGGSLRLICAASGSIFYYNVMGWYRQAPGKEREWVAAIDIDGSTYYADSVNGRFTIARDNAKNTVYLQMNSLKPADTAVYYCNAQAPYWFSFYSDHKYDYWGLGTQVTVSS,low polyreactivity

row,Sequence,polyreactivity (PSR sort gate)
1,QVQLVESGVGLVQAGGSLRLSCAASGSTFEVHSMGWYRQAPGKERELVATITRSGGSTYYADSVKGRFTISRDNGKNTVYLQMNSLKPEDTAVYYCNALWELKWGQGTQVTVSS,low polyreactivity
2,QDQHVESGGGVVQARGSLRLICDASGFTIQRSAMGWYRQAPGKERELVAAISSGGSTYYADSVKGRFTFSRDNAKNTVYLQMNSLKPEDTAVYYCAARPIPRYYGKFWRVDYWGQGTQVTVSS,high polyreactivity
3,QVQLVESRGGIVQAGGSLRLSCAASGRIFSRYAMGWSRQAPGKEREMVAAISWSGGSTFYADSVKGRFTISRDNAKNTVYLQMNSLKPEDTAVYDCAAYPRFYGGKDGEYGYWGQGTQVTVSS,high polyreactivity
4,QVQLVESGGGLVQAGGSLRLSCAASGSIFDIYCMGWYRHAPGKERELVASISGGAGSTNYADSVKGRFTISRDNAKNTVYLQMNSLKPEDTAVYYCAAEVYVPDYFQHKFDVEYEYWGQGTQVTVSS,low polyreactivity
5,QVQLVESGGGLVQAGGSLRLICAASGFTFVANAMGWYRQAPGKERELVAVIDWDDGSTYYADSVKGRFTISRDNAKNTVYLQMYSLKPEDTAVYYCARDVYASPRLYTSRYNYWGQGTQVTVSS,low polyreactivity
6,QVQLVESGGGLVQAGGILRLSCAASGSTFDINTMGWYRQAPGKEREFVAAITDSDDSTYYADSVKGRFTISRDHAKNTVYLLMNSLKPEDTAVDYCNYDYWGQGTQVTVAS,low polyreactivity
7,QVQLVESGGGLVQAGGSLRLSCAASGSIFYAYVMGWYRQAPGKERELVAAIDIGGGTYADSVKGRFTISRDNAKNTVYLQMNMLKPEDTAVYYCAKAGYFSRGVYVYYLDEYDYWGQGSQVTVSS,high polyreactivity
8,QVQLVESGGGLVQAGGSLRLSCAASGSIFYYYAMGWYRQAPGKERELVAAISGTGGSTYYADSVKGRFSISRDNAKNTVYLQMNSLKPEDTAVYYCAASFYIERHRYNYWGQGTQVTVSS,high polyreactivity
9,QVQLVESGGGLVQAGGSLRLSCAASGYTFSFNAMGWYRKAPGKEREMVAAINRGTSTNYADSVKGRFTISRDNAKNTVYLQMNSLKPEDTAVYYCAAGFRRRAGRYDLDYWGQGTQVTVSS,high polyreactivity
10,QDQLVESGGGLVQAGGSLRLSCAASVSIFWSYAMGRSRQAPGKEMELVASITRSGGSTYYADSVKGRFTISRDNAKNTVYLQMNSLKPEDTAVYYCNARRTTRWGSSKYEYDYCGQGTQVTVSS,high polyreactivity
11,QVQLQESGGGLVQAGGSLRLSCAASGYISHAVEMCWYRQAPGKEHELVASISNGGSTNYADSVKGRFTISRDNAKNTVYLQMNSLKSEDTAVYYCAGWTGQVDIHYYWGQGTQVTVSS,low polyreactivity
12,QVQLVESGGGLVQAGGCLRLSCAASGSTFPRNAMGWYRQAPGKERELVATITSSGGGTYYADSVKGRFTISRDNAKNTVYLQMNILKPEDTAVYYCNADGPAGDAFDYCGQGTQVTVSS,low polyreactivity
13,QVQLVESGGGLVQAGGSLRLSCAASGFIFKANAMGWYRQAPGKERELVAVITRRGGSTYYADSVKGRFTISRDNAKNTVYLQMNSLKPEDTAVYYCAAKSYTYGYNYWGQGTQVTVSS,high polyreactivity
14,QVQLVESGGGLVQAGGSLRLSCAASGRTFPYNVMGGYRQAPGKERELVASNDGSGGSTYYADSVKGRFTISRDNAKKTVYLQMNSLKPEDTAVYYCAAVYYQSGNYWYSYLGQSPYDYWGQGTQVTVSS,low polyreactivity
15,QVQLVESGGGLVQAGGSLRLSCAASGSIFYENAMGWYRQAPGKERELVAAISRSGGSTYYADSVKGRFTISRDNAKNSVYLQMNSLKPEDTAVYYCAADVYVFIGDYWGQGTQVTVSS,low polyreactivity
16,QVQLVESGGGLVQAGGSLRLSCAASGRTFTVYTMGWYRQAPGKERELVAVISTGGRTYYADSVKGRFTISRDNAMNTVYLQMNSLKPEDTAVYYCAAKFTREYYWGQGTQVTVSS,high polyreactivity
17,QVQLVESGGGLVQAGGSVRLSCAASGLIFTIYAMGWYRQAPGKERELVAVITWSGGSTYYADSVKGRFTISRDNAKNTVYLQMYSLKPEDTAVYYCAVEWAYPYWYTYYLEDYWGQGTQVTVSS,low polyreactivity
18,QVQIVESGGRLVQAGGSLRLSCAASGNIFRYNAMGWYRQAPGKERELVAAITLSGGDTYYADSVKGRFTISRDNAKNIVYLQMNSLKPEDTAVYYCAKDPRSDYTDGMNYWGQGTQLTVSS,low polyreactivity
19,QVQLVESGVGLVQAGGSLRLSCAASGRLFQYYAMGWYRQAPGKERELVASISGTGGSTYYADSVKGRFTISRDNAKNTVYLQMNSLKPEDTAVYYCAVRVKLQYWREYNYWGQGTQVTVSS,high polyreactivity
20,QVQLVESGGGLVQAGGSLRLSCAASGITFGVYGMGWYRQAPGKERELVAAISRTGGSTYYADSVKGRFTISRDNAKNTVYLQMNSLKPEDTAVYYCAADRYRRVAKHGYWGQGTQVTVSS,high polyreactivity
21,QVQLVESWGGLVQAGGSLRLSCAASGRTLGRNAMGWYRQAPGKEREWVASISSGGSTNYADSVKGRFTISRDNAKNTVYLQMNSLKPEDTAVYYCNKRYRSLYSSGYDYWGQGTQVTVSS,high polyreactivity
